Measured values taken from PMC3153955.

System: C[C@@H]1O[C@@H]1P(=O)(O)O
Experiment: pyruvate kinase-lactate dehydrogenase coupled assay
Assay type: biochemical, Streptomyces wedmorensis
Details: 1 mM ATP, 10 mM MgCl2, 100 mM KCl, pH 7.2, 25 °C

Substance: FomA (fosfomycin resistance kinase FomA) (Streptomyces wedmorensis)
- Km: 9.9 ± 0.7 µM
- kcat: 155.9 ± 1.5 s⁻¹
